Columns and labels:
[1] = target: T1, T7-tagged AtBG1 (Arabidopsis thaliana β-glucosidase 1) (Arabidopsis thaliana, UniProt Q9SE50 27-528); test: co-immunoprecipitation with anti-T7 antibody, anti-HA Western blot, densitometry
T1 construct: Co-expressed with AtBG1:HA in protoplasts; pulled down with anti-T7 antibody; also called AtBG1:T7; not shown: T7 tag
T1 sequence (looked up): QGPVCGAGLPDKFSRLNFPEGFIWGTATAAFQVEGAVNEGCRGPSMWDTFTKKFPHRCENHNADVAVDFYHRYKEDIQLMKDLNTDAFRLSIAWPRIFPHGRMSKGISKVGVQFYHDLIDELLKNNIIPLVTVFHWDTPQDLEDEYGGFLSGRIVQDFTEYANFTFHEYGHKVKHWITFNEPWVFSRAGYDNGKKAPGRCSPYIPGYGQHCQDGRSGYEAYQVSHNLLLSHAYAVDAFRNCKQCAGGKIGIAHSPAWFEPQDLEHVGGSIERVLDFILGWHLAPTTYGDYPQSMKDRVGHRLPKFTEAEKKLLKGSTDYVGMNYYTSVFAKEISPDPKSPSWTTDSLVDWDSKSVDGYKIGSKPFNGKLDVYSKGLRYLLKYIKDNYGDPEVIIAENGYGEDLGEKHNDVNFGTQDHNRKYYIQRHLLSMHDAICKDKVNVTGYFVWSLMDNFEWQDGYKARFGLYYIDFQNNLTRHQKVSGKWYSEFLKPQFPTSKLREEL
Procedure: The present inventors also investigated the mechanism by which dehydration stress activates AtBG1. […] Thus, the present inventors investigated whether the mechanism by which dehydration stress activates AtBG1 is attributed to AtBG1 polymerization. Protein extracts were prepared from protoplasts co-transformed with two differently tagged forms of AtBG1, AtBG1:HA and AtBG1:T7, according to the same method as described in the above Example, and used for co-immunoprecipitation with anti-T7 antibody. Immunoprecipitates were analyzed by Western blotting using anti-HA antibody to investigate the interaction between AtBG1 molecules. As a result, HA-tagged AtBG1 was detected in the precipitate immunoprecipitated with T7-antibody (FIG. 35). Furthermore, the amount of HA-tagged AtBG1 in the precipitate was increased by approximately 3-fold upon treatment of protoplasts with 10% PEG 8000, a chemical that induces dehydration stress, for 12 hours (measured by densitometery software, FIG. 35). Therefore, the present inventors concluded that AtBG1 undergoes homomeric interactions, which are enhanced under conditions of dehydration stress.

B1: HA-tagged AtBG1 (Arabidopsis thaliana β-glucosidase 1) (enzyme, UniProt Q9SE50 27-528, looked up)
chain: QGPVCGAGLPDKFSRLNFPEGFIWGTATAAFQVEGAVNEGCRGPSMWDTFTKKFPHRCENHNADVAVDFYHRYKEDIQLMKDLNTDAFRLSIAWPRIFPHGRMSKGISKVGVQFYHDLIDELLKNNIIPLVTVFHWDTPQDLEDEYGGFLSGRIVQDFTEYANFTFHEYGHKVKHWITFNEPWVFSRAGYDNGKKAPGRCSPYIPGYGQHCQDGRSGYEAYQVSHNLLLSHAYAVDAFRNCKQCAGGKIGIAHSPAWFEPQDLEHVGGSIERVLDFILGWHLAPTTYGDYPQSMKDRVGHRLPKFTEAEKKLLKGSTDYVGMNYYTSVFAKEISPDPKSPSWTTDSLVDWDSKSVDGYKIGSKPFNGKLDVYSKGLRYLLKYIKDNYGDPEVIIAENGYGEDLGEKHNDVNFGTQDHNRKYYIQRHLLSMHDAICKDKVNVTGYFVWSLMDNFEWQDGYKARFGLYYIDFQNNLTRHQKVSGKWYSEFLKPQFPTSKLREEL
notes: Expressed in Arabidopsis protoplasts or in 'rescued atbg1' plants and tested in protein extracts; also called AtBG1:HA; AtBG1::HA; not shown: virus HA (hemagglutinin) tag
With B1 the “fold increase of the co-precipitated amount upon 10% PEG 8000 (12 hours) against untreated protoplasts” value [1] was roughly 3 fold and the “ABA-GE hydrolyzing activity (ABA content by ELISA) of high against low molecular weight forms of AtBG1 after gel filtration and anti-HA immunoprecipitation” value (Q9SE50) was “High molecular weight forms exhibited 4-fold higher AtBG1 activity”.
